Test results from doi:10.1101/2025.04.28.648957 (bioRxiv, 2025).

How the values were obtained:
negative-staining TEM = target: the molecule itself; test: negative-staining TEM
SEC-MALS = target: the molecule itself; test: SEC-MALS
SEC = target: the molecule itself; test: SEC

Row | Protein | binding result (negative-staining TEM) | stoichiometry N (SEC-MALS) | binding result (SEC)
1 | tag-cleaved SSNA1 S89A (natural protein, human) GPMTQQGAALQNYNNELVKCIEELCQKREELCRQIQEEEDEKQRLQNEVRQLTEKLARVNENLARKIASRNEFDRTIAETEAAYLKILESAQTLLSVLKREAGNLTKATAPDQKSSGGRDS | binds |  | 
2 | tag-cleaved SSNA1 S89D (natural protein, human) GPMTQQGAALQNYNNELVKCIEELCQKREELCRQIQEEEDEKQRLQNEVRQLTEKLARVNENLARKIASRNEFDRTIAETEAAYLKILESDQTLLSVLKREAGNLTKATAPDQKSSGGRDS |  | 2 | 
3 | tag-cleaved SSNA1 (full-length human SSNA1, 1-119) (natural protein) GPMTQQGAALQNYNNELVKCIEELCQKREELCRQIQEEEDEKQRLQNEVRQLTEKLARVNENLARKIASRNEFDRTIAETEAAYLKILESSQTLLSVLKREAGNLTKATAPDQKSSGGRDS |  |  | binds
4 | tag-cleaved SSNA1 1-104 (domain or fragment, human) GPMTQQGAALQNYNNELVKCIEELCQKREELCRQIQEEEDEKQRLQNEVRQLTEKLARVNENLARKIASRNEFDRTIAETEAAYLKILESSQTLLSVLKREAGNLT |  |  | binds
5 | tag-cleaved SSNA1 1-97 (domain or fragment, human) GPMTQQGAALQNYNNELVKCIEELCQKREELCRQIQEEEDEKQRLQNEVRQLTEKLARVNENLARKIASRNEFDRTIAETEAAYLKILESSQTLLSVLK | binds |  | 
6 | tag-cleaved SSNA1 1-90 (domain or fragment, human) GPMTQQGAALQNYNNELVKCIEELCQKREELCRQIQEEEDEKQRLQNEVRQLTEKLARVNENLARKIASRNEFDRTIAETEAAYLKILESSQ |  | 2 | 
